Series [1] in a line: folding stability dG unfold from trypsin proteolysis; higher = more stable. In short, it runs like this: (§1)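 Digests were run with trypsin and chymotrypsin at 11 concentrations in threefold dilutions, plus a no-protease condition, on designed mini-proteins in a PA-tagged cDNA display construct. The mini-proteins were under 80 residues, had no cysteine, and were kept only when AlphaFold2 dimer inter-PAE was above 15. After sequencing, Bayesian fitting of the counts gave K50, from which unfolding free energy was derived against a sequence-predicted unfolded-state K50 and a shared folded-state K50, per protease or combined.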

Series [2] in a line: folding stability dG unfold from chymotrypsin proteolysis; higher = more stable. In short, it runs like this:
as §1

A short description of series [3]: folding stability dG unfold (combined trypsin and chymotrypsin); higher = more stable. In short, it runs like this:
as §1

± gives the half width of the 95% confidence interval.

As to “SAGGSAGGSAGEEFIKKIPPGAEVKPITPLESEGKVYVKITVKKKDENGKWTEEEFIFKVSAGGSAGGSAGG [r17_140_JUSTAS]”, the “folding stability dG unfold” value in series [1] amounted to 1.17 ± 0.072 kcal/mol; in series [2], 1.38 ± 0.087 kcal/mol; in series [3], 1.28 ± 0.22 kcal/mol.

In the case of “SAGGSAGGSAGEEKEYRIVVPFDSDDPEAFVRAVFDGIPPDVPIKAIDFNPELGYGVVVASAGGSAGGSAGG [r11_698_TrMRF]”, the “folding stability dG unfold” value in series [1] was found to be 0.364 ± 0.091 kcal/mol; in series [2] it was 1.07 ± 0.072 kcal/mol; in series [3], 0.892 ± 0.11 kcal/mol.

As for “SAGGSAGGSAGEFEILSIETEPPNGRVEIAIRFDDWVVVINFDNPNEPELYPVRPDDGIFSAGGSAGGSAGG [r17_145_TrROS]”, the entries for the “folding stability dG unfold” value in series [1], in series [2] and in series [3] were 2.54 ± 0.19 kcal/mol, 2.24 ± 0.12 kcal/mol and 2.3 ± 0.17 kcal/mol, respectively.

Turning to “SAGGSAGGSAGEIEVTVTFTGDDGYVVEVKYTFEVPEPNNPIIKKVEVKVKKLKPNEPASSAGGSAGGSAGG [r11_517_TrMRF]”, the “folding stability dG unfold” value was 1.12 ± 0.075 kcal/mol in series [1], 2.63 ± 0.063 kcal/mol in series [2] and 2.22 ± 0.23 kcal/mol in series [3].

On to “SAGGSAGGSAGEKDLPVIEVEFPFPSSFPLPLIKKFAEPFGVKKVEFFEDGTVKVLYVLDSAGGSAGGSAGG [r11_961_TrMRF]”, for which the “folding stability dG unfold” value in series [1] was 0.416 ± 0.1 kcal/mol; in series [2], 0.984 ± 0.14 kcal/mol; in series [3], 0.806 ± 0.13 kcal/mol.

Take “SAGGSAGGSAGEKTFVIDEVKITSVERLPDGSLRVTIEVRLPNGETLTLTLTLPPGAVLESAGGSAGGSAGG [r11_429_TrROS_Hall]”: the “folding stability dG unfold” value in series [1] is 2.84 ± 0.11 kcal/mol; in series [2] it was 3.19 ± 0.042 kcal/mol; in series [3], 3.05 ± 0.07 kcal/mol.

For the sequence “SAGGSAGGSAGEKTIKIKVKDKNGKTKTITLKIKNAKFKPGQKIEIVKVNKNGSLEIKLKSAGGSAGGSAGG [r11_733_TrROS_Hall]”, the “folding stability dG unfold” value came out at 0.678 ± 0.059 kcal/mol in series [1], 1.82 ± 0.087 kcal/mol in series [2] and 1.6 ± 0.24 kcal/mol in series [3].

For the sequence “SAGGSAGGSAGEKVIRFPFKSPEEIREHIKNGRPIRFPNGKPVKITKIQPYPNGWLWITVSAGGSAGGSAGG [r11_48_TrROS]”, the “folding stability dG unfold” value in series [1] was determined as 0.89 ± 0.05 kcal/mol; in series [2] it was 1.3 ± 0.12 kcal/mol; in series [3] it was 1.12 ± 0.21 kcal/mol.

As for “SAGGSAGGSAGEKVKLVITTTVTLPALDPEGGEFVGPVTFTETIVLDMNPEDAARLLAAASAGGSAGGSAGG [r17_283_TrMRF]”, the “folding stability dG unfold” value in series [1] came to 1.4 ± 0.034 kcal/mol; in series [2], 2.675 ± 0.013 kcal/mol; in series [3], 2.23 ± 0.056 kcal/mol.

“SAGGSAGGSAGENKPIKVLVFLEKEDEYYEELFEFDSPEEIEEWLKKIPKDYKVKKVIVFSAGGSAGGSAGG [r17_410_TrMRF]”: the “folding stability dG unfold” value in series [1] turned out to be 3.09 ± 0.11 kcal/mol; in series [2] it was 3.95 ± 0.14 kcal/mol; in series [3] it was 3.61 ± 0.16 kcal/mol.

Consider “SAGGSAGGSAGEPIKGIIRVYNPETGEVTDIELEFKTLEEALAFAASLPPTVARVEIVFASAGGSAGGSAGG [r11_25_TrMRF]”, for which the results for the “folding stability dG unfold” value in series [1], in series [2] and in series [3] were 1.6 ± 0.059 kcal/mol, 3.002 ± 0.03 kcal/mol and 2.66 ± 0.095 kcal/mol, respectively.

Regarding “SAGGSAGGSAGFHIDVEVHRDDEGYVKVRVKMYMYNPDPGEPMGSFEMTIWIPPEDADKLSAGGSAGGSAGG [r11_575_TrROS]”, the “folding stability dG unfold” value in series [1] stood at 3.33 ± 0.14 kcal/mol; in series [2], 3.9 ± 0.056 kcal/mol; in series [3], 3.7 ± 0.098 kcal/mol.

Consider “SAGGSAGGSAGFYKAKLKILKTKVYSNEKGTKKKTYKPVLILEELIPPKIPKELWEKLNKSAGGSAGGSAGG [r11_318_TrMRF]”, for which the “folding stability dG unfold” value in series [1] is 0.836 ± 0.3 kcal/mol; in series [2], 0.528 ± 0.4 kcal/mol; in series [3] it was 0.55 ± 0.57 kcal/mol.

Regarding “SAGGSAGGSAGGAAPNTFKVRLELKVKVEKRTYKNEDGSTYEVDSISVELKIEIEPLPDSAGGSAGGSAGGS [r10_1212_TrROS_Hall]”, the “folding stability dG unfold” value was determined as 3.85 ± 0.19 kcal/mol in series [1], 5.69 ± 0.2 kcal/mol in series [2] and 5.66 ± 0.51 kcal/mol in series [3].

For “SAGGSAGGSAGGAEITIEEKDGKLTLTVRLPDGYVATATFDPNGKWTIKEIKVYKLPEGLSAGGSAGGSAGG [r7_826_TrROS_Hall]”, the “folding stability dG unfold” value in series [1] is 2.35 ± 0.3 kcal/mol; in series [2] it was 3.52 ± 0.077 kcal/mol; in series [3], 3.05 ± 0.47 kcal/mol.

As to “SAGGSAGGSAGGAEKFKVLSVSWDLGKGKRYGVLEVERPDGPLLTIVVPLSYPDKLKELASAGGSAGGSAGG [r7_365_TrMRF]”, the “folding stability dG unfold” value in series [1] was determined as 0.395 ± 0.14 kcal/mol; in series [2] it was 1.29 ± 0.17 kcal/mol; in series [3] it was 1.02 ± 0.22 kcal/mol.

With “SAGGSAGGSAGGAELLPSDVLKFTLTIQPDLKGSPPIIVEVTISVPPEVLEKPEIEVSLSAGGSAGGSAGGS [r10_672_JUSTAS]”, the entries for the “folding stability dG unfold” value in series [1], in series [2] and in series [3] were 2.12 ± 0.15 kcal/mol, 2.87 ± 0.093 kcal/mol and 2.7 ± 0.15 kcal/mol, respectively.

On to “SAGGSAGGSAGGAKKAIEEAIKAGYLPYEDPESGKIHFYFPTPDGTIHKLTLFVAPEEESAGGSAGGSAGGS [r10_1173_TrMRF]”, for which the entries for the “folding stability dG unfold” value in series [1], in series [2] and in series [3] were 0.591 ± 0.03 kcal/mol, 0.711 ± 0.17 kcal/mol and 0.796 ± 0.14 kcal/mol, respectively.
